Measured values as given in patent US7105166.

Columns and labels:
CTLA4Ig (human) [1] = experiment: Scatchard analysis of competition data, 125I-B7Ig on immobilized CTLA4Ig
CTLA4Ig (human) [2] = experiment: 125I-B7Ig (4 nM) on plate-coated CTLA4Ig
CTLA4Ig (human) [3] = experiment: solid phase competition of 125I-B7Ig binding to immobilized CTLA4Ig
[4] = biological target: CD28Ig (human) [IgG part: P01857]; experiment: inhibition of 125I-B7Ig binding to immobilized CD28Ig
[5] = biological target: CD28 expressed on transfected cells (human) (UniProt P10747); experiment: inhibition of 125I-B7Ig binding to cell surface expressed CD28
[6] = biological target: B7 antigen (B7-1, CD80) expressed on cells (human) (UniProt P33681); experiment: cell-based or functional assay
B7Ig (human) = B7Ig (human) (UniProt P33681); experiment: solid phase competition of 125I-B7Ig binding to immobilized CTLA4Ig

“B7Ig (from UniProt P33681 35-249; P01857 99-330) (Fc fusion)” gave a Kd (CTLA4Ig (human) [1]) of 12 nM, a radioactivity bound to wells treated without competitor (CTLA4Ig (human) [2]) of 28300 cpm and an IC50 (CTLA4Ig (human) [3]) of 175 nM.

mAb 9.3 (antibody) gave an inhibition of ^125I-B7Ig binding [4] greater than 90% and an inhibition of ^125I-B7Ig binding [5] greater than 90%.

With mAb BB-1 (antibody) the inhibition of Th-induced IgM production [6] was 65% and the IC50 (B7Ig (human)) was 22 nM.
